Numbering of substitutions follows the chain as printed.
B1: 43 (protein, listed as Rhizobium leguminosarum)
chain: MAQGKIALEEHFAIPETLQDSAGFVPGDYWTELSARLLDIQDKRLRLMDTHGIEKMILSLNAPAVQAIPDKAKAVEISRRANDFLAEQCVKNPNRFLGFAALPLQDPDAATQELQRCVTTMGFVGALVNGFSQEGDGTTPLYYDLPQYRPFWAEVEKLDVPFYLHPRNPLPQDSRIYAGHSWLMGPTWAFAQETAVHALRLMGSGLFDEHPALRIIVGHMGEGLPYMMWRIDNRNAWVKVEKSYPAKRPIADYFNENFYITTSGNFRTQSLIDAMLEIGADRILFSADWPFENVDHAANWFDSATISEADRLKIGRTNAVSLFKLDR
B2: 44 (protein, listed as Mycobacterium avium)
chain: MARIITVEEHFQHPEVSARVAELTGPAVEGLAEFGNAFSLDPDSTARLGGNRLAHMDQVGIDVQVVSHGNGSPGTLQHPEAVELCRRVNNDLAAQIAENPDRFRGFATLPLYDPAAAAEELRRCVGDLGFVGALIAGSYDGLFLDDERFDPILTAAEAVDFPIYVHPGLPEAPVSQRYYAGSWPASVHMMFSGPAFGWHAEAGIHIVRLILSGALDRHPTLKLLSGHWGELAAFYLERLDETLGLLPTGLERAPSDYYRQQVWITPSGMYNQNQLNFMTAELGAQRIIYSEDFPYVVRDNVSTFLEQAGLSEADTHAIAHTNAEALLRI
B3: 46 (protein, listed as Rhodococcus opacus)
chain: MARIITLEEHYLDPAIAAASAPLARELSPDFAAAYDPASGLSYTPSAQVLQDLGQRRIADMDTHGISMQVLSCLTTQQVPADVAPDLVRAANDTAAAAVRAHPDRFAAFAALPTTAPDAAATELARCIDDLGFVGTMINGRTDGEFLDAPRFDPILATAAARNVPIYLHPAVPPRATSDSNYAGLAPLVTARLQTSAWGWHQETAVHFLHLVLSGVLDRYPNLQFILGHWGEMIPFYLDRLDEALPQAVTNLDRTISDYVRENVYITPSGMFNQAQLQYCVETLGVDRILYSVDYPFIGNDGAVSFLDEANLPDEAKHQIAHQNTEKLLGL
B4: 47 (protein, listed as Serratia odorifera)
chain: MAKIICLEEHTLDKALVMASMPAALAQAPFLSDWGKTITDGNLPDRSRPQIEKNDLINVKGADIGRGRLDDMDEAGITMQVLSVGGFPHLISAAEGVDLNRAANDRLANAVNAHPDRFAAFATLPWAQPDAAEKELERAVKELGFKGALLNGRPSIHFLDHPDYDGLLARFNALGVPLYLHPGLPVRSVQQAYYSGFSDEVTARLSMFGWGWHHEAGIHLLRLILSGAFDKYPNLQVISGHWGEMLPFWLQRLDDSLPQAATGLRRTITQTFREQVYVTPSGMLTLPHFQFIYALLGAERILFSVDYPYQTLDGVKAFIQSLPVPEEAKEAIAFRNAERLFGLTS
B5: 48 (protein, listed as Amycolatopsis mediterranei)
chain: MASMKLYGLEEHFVTADVIEAWRRRDPGLAEPMMKWAVASDITPALLDVDGGRIAAMDDAGIDTTVLSLTTPGLQNLDAAEAVALQAPTNDLIAAAVRRHPGRFQGFATLATSAPAAAADELRRAVTELGLNGALVNANSRGRALDAPGFWDIYEAAEDLRAPVYLHPGVPVPAVTEAYYRGFGEPVNSMLATGAFGWHYDAGLTILRMIVAGVFDRFPGLQVILGHWGEVVLFYLDRVAAMDKLTALRRPIAEYFRSNIFITPGGISSHKYLRWSLETVGVERIMYASDYPFNTERAGSARRFLDTAPVDEAGRERIAYRNWEELIAGIRR
B6: 49 (protein, listed as Streptomyces sp.)
chain: MAKIIALEEHFSDPAVAKAGAARARALSPGFAASYSPASGLPYSPSPEVLENLAEKRLADMDAGGITMQVLSGLGAQTVPADVAPALVAGSNDKAAAAVRAHPDRFAAFAALPTATPEAAVAELDRSVNELGFVGTLIMGRTEGEFLDAPRFEPILARAAALKVPVFLHPGVPPREITDSNYAAGLPTGIGTRLQTAAWGWHQETAVHFLHLVHSGVLDRYPDLQFILGHWGEMIPFYLDRVDEALPQRATGLDRSFHEYFRENVYLAPSGMWSQAQLRFCLETVPLERIVFAVDYPFIGNEGAVPFLEKAELPQADKRKIAHENAERLLGL
B7: 50 (protein, listed as Streptomyces sp.)
chain: MARIVTLEEHWTDPAVTAAGMPNLLDHVPGYAAAFDPDTGMPYPRHPELLEDLGAARIADMDRHGITTQVLSLVNTFLPADVAPRLTAAANDAMAAAVEAFPGRFAAFATLPTAVPGAAADELRRCVGELGFVGTMIMGRTDGEFLDQPRFDPILRAASDLSVPVYLHPAPPPVAVSEASYAGGLSPAVSAAFRLAAWGWHQETAVHLLHLVLAGVLDRYPGLQFVLGHWGEFIPFYLDRLDESMPRRMTGLDRTFREYFRDNVFITPSGMFSQAQLRYCADTVGTDRIIHSVDFPMLGNEGAVSFLTDSHLSREDQEKIAHGNADALLGLG
B8: 51 (protein, listed as Mycobacterium gilvum)
chain: MARVIAIEEHYAHPGLQPAEALANLRKHPQLARIQDKLEDLGAGRLADMDAAGIDMQVLSHTVPGAEALPAAQAVDVVRQTNDDLAEVIAAHPDRFAGFAALPMRDPQAAATELQRAVGTLGFCGAMINGLIEGRFLDHPDFTPLLSTAADLGVPLYLHPSFPPPQVAQIYFGGLPPVLADLLATAGWGWHAETALHVLRLISTGVFDRLPELRVIVGHMGEMIPFALARIDTVLSPMTELRQPVAQYFQTNVWFTTSGYTTFPPLQCALSTVGIDRLIFSVDYPYTDNASARALLDTAPISPVDREKLAHATVEALLRV
B9: 52 (protein, listed as Streptomyces sp.)
chain: B6 chain with R25Q, G75S, T116A, M234T, V285F, Q315E
B10: 53 (protein, listed as Granulicella tundricola)
chain: MARTITLEEHFVTDSFLRATGAYDKPAPPWLAQLQPKLLDLGDGRIAAMDEAGIDLQVLSLAALGFDALDAATATPLVHDINDELAAAVRANPTRLAAFASLALKDPQSAARELERAIQKLGFRGVLLDGTTDGLFLDDPRFTPVFEAAVALNVPIYLHPAPPPESVFDTYFTGLPEGVGQMLSIAGWGWHAETALHTLRLITNGVFDRYPTLQLIIGHMGEMLPMALARTSKALSHAARLRQPVAAYFQSNIHLTTSGYFTQPPLRCALDVVGIDRLMFSIDYPFSANTLGRDYLTELEQTLTPEDLAKLIHRNAESLLNLS
B11: 130 (protein)
chain: MGSSHHHHHHSSGRENLYFQGMKSITFEEHYVIEDIQKETMNAISADPKGVPMKVMLEGLEKKTGFTNADELSHHDERIQFMNNQDVQIQVLSYGNGSPSNLVGQKAIELCQKANDQLANYIAQYPNRFVGFATLPINEPEAAAREFERCINDLGFKGALIMGRAQDGFLDQDKYDIIFKTAENLDVPIYLHPAPVNSDIYQSYYKGNYPEVTAATFACFGYGWHIDVGIHAIHLVLSGIFDRYPKLNMIIGHWGEFIPFFLERMDEALFAEHLNHSVSYYFKNSFYITPSGMLTKPQFDLVKKEVGIDRILYAADYPYIEPEKLGVFLDELGLTDEEKEKISYTNGAKLLGLSSNN
modifications: Staphylococcus Aureus
B12: 131 (protein)
chain: MSLTKIDAYAHILPAKYYQKMLSVEPNIPNMFPFIKIKTLMDLDERLTKWPDQNTKQVISLANISPEDFTDSKTSAELCQSANEELSNLVDQHPGKFAGAVAILPMNNIESACKVISSIKDDENLVGAQIFTRHLGKSIADKEFRPVLAQAAKLHVPLWMHPVFDARKPDNNLVFSWEYELSQAMLQLVQSDLFQDYPNLKILVHHAGAMVPFFSGRIDHILDEKHAQDFKKFYVDTAILGNTPALQLAIDYYGIDHVLFGTDAPFAVMPSGADQIITQAINDLTISDKDKQKIFHDNYYSLIKEGHHHHHH
modifications: Lactobacillus Acidophilus
B13: 132 (protein)
chain: SLLRFSAVSRHHRGASIDPMTFSEATTPDALTPDAHTPRLLTCDVLYTGMGGAQSPGGVVVVGETVAAAGHPDELRRQYPHAAEERAGAVIAPPPVNAHTHLDMSAYEFQALPYFQWIPEVVIRGRHLRGVAAAQAGADTLTRLGAGGVGDIVWAPEVMDALLAREDLSGTLYFEVLNPFPDKADEVFAAARTHLERWRRLERPGLRLGLSPHTPFTVSHRLMRLLSDYAAGEGLPLQIHVAEHPTELEMFRTGGGPLWDNRMPALYPHTLAEVIGREPGPDLTPVRYLDELGVLAARPTLVHMVNVTPDDIARVARAGCAVVTCPRSNHHLECGTFDWPAFAAAGVEVALGTDSVASGETLNVREEVTFARQLYPGLDPRVLVRAAVKGGQRVVGGRTPFLRRGETWQEGFRWELSRDL
modifications: Deinococcus Radiodurans

Assay: 14C assay with IPTG-induced recombinant E. coli cells: 14CO2 captured from [14C]-carboxyl-labeled dicamba
Conditions: among the 108 sequences tested, recombinant E. coli cells

| Molecule | decarboxylation activity of dicamba |
| --- | --- |
| B1 | showed decarboxylation activity of dicamba |
| B2 | showed decarboxylation activity of dicamba |
| B3 | showed decarboxylation activity of dicamba |
| B4 | showed decarboxylation activity of dicamba |
| B5 | showed decarboxylation activity of dicamba |
| B6 | showed decarboxylation activity of dicamba |
| B7 | showed decarboxylation activity of dicamba |
| B8 | showed decarboxylation activity of dicamba |
| B9 | showed decarboxylation activity of dicamba |
| B10 | showed decarboxylation activity of dicamba |

Same assay, conditions: dicamba decarboxylation activity of the protein of the given SEQ ID NO; High / Low / No

| Molecule | Enzymatic Detection level |
| --- | --- |
| B1 | High |
| B2 | High |
| B3 | High |
| B4 | High |
| B5 | High |
| B6 | High |
| B7 | High |
| B8 | High |
| B9 | High |
| B10 | High |

Same assay, conditions: induced recombinant E. coli cells, [14C]-carboxyl-labeled dicamba, 14CO2 capture

| Molecule | Dicamba Decarboxylase Activity |
| --- | --- |
| B1 | High |
| B2 | High |
| B3 | High |
| B4 | High |
| B5 | High |
| B6 | High |
| B7 | High |
| B8 | High |
| B9 | High |
| B10 | High |

Assay: Saturation mutagenesis of SEQ ID NO:109: dicamba decarboxylation activity of point mutants (carbon dioxide released)
Conditions: decarboxylation activity (carbon dioxide released) of point mutant compared with unmutated backbone protein; backbone SEQ ID NO: 109

| Molecule | Fold Activity |
| --- | --- |
| B1 | 1 |
| B2 | 0.7 |
| B3 | 1.1 |
| B4 | 1.2 |
| B5 | 1.5 |
| B6 | 2 |
| B7 | 1.7 |
| B8 | 1.7 |
| B9 | 1.9 |
| B10 | 1.6 |
| B11 | 1.2 |
| B12 | 1.6 |
| B13 | 1.6 |

Source: patent US20160053277A1, “Compositions Having Dicamba Decarboxylase Activity and Methods of Use” (PIONEER HI-BRED INTERNATIONAL, INC., priority 2013, published 2016)
